Laboratory results published in patent US20120283184A1 (published 2012).

Target: T1, human vascular endothelial growth factor receptor-2 Fc chimera (KDR-Fc) (human, UniProt P35968 20-764)
T1 construct: range 1-764; also called human VEGFR-2; not shown: human IgG1 Fc
Experiment: radioactive equilibrium binding, 1 nM KDR-Fc, % of input
Protocol: To prepare ³⁵S-labeled binding proteins for analysis, mRNA was prepared as described above for RNA-protein fusion production but the linker ligation step was omitted. The mRNA was expressed using rabbit reticulocyte lysate translation kit (Ambion) in the presence of ³⁵S-labeled Met at 30° C. for 1 hour. Expressed protein was purified on M2-agarose Flag beads (Sigma) as described above. This procedure produced the encoded protein without the nucleic acid tail. In a direct binding assay, VEGF-R2-Fc fusions in concentrations ranging from 0 to 200 nM were added to a constant concentration of the purified protein (0.2 or 0.5 nM) and incubated at 30° C. for 1 hour in buffer B. The receptor-binder complexes were captured using Protein A magnetic beads for another 10 minutes at room temperature using a Kingfisher™ The beads were washed with six reaction volumes of buffer B. The protein was eluted from the beads with 100 μL of 0.1 M KOH. 50 μL of the reaction mixture and elution were dried onto a LumaPlate-96 (Packard) and the amount of ³⁵S on the plate was measured using a TopCount NXT instrument (Packard). The amount of fibronectin-based scaffold protein bound to the target was estimated as a percent of radioactivity eluted from Protein A magnetic beads compare to radioactivity in the reaction mixture. Nonspecific binding of fibronectin-based scaffold proteins to the beads was determined by measuring binding in the absence of KDR-Fc and represented less than 1-2% of the input. Specific binding was obtained through subtraction of nonspecific binding from total binding. Data was analyzed using the GraphPad Prizm software (GraphPad Software, Inc, San Diego, Calif.), fitted using a one site, non-linear binding equation.

T1 sequence (P35968 20-764 limits assumed, change not shown, form in doubt): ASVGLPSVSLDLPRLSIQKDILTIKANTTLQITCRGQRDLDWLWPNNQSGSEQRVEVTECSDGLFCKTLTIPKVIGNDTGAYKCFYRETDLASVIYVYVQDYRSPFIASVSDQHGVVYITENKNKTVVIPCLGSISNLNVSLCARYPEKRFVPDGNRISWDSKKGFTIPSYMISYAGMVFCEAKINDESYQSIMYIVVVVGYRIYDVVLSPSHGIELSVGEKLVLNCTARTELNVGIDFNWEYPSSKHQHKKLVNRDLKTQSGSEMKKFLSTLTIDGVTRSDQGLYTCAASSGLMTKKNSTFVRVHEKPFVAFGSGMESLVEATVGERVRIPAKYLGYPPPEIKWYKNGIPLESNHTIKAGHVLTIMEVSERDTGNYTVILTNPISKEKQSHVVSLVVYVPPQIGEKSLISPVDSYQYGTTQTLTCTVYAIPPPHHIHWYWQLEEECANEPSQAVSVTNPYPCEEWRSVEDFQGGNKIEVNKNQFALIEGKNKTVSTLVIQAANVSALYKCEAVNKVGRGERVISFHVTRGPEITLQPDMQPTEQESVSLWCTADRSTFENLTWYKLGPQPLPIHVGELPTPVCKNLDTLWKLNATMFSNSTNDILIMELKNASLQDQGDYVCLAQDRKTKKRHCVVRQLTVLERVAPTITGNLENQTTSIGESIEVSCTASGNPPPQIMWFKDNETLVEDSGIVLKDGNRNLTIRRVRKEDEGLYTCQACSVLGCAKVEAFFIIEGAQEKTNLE

Row | Binder | Binding to 1 nM KDR, %
1 | 3C3 PR3 (designed binder) EVVAATPTSLLISWRHPHFPTRYYRITYGETGGNSPVQEFTVPLQPPTATISGLKPGVDYTITVYAVTMEQNGHELFTPISINYRT | 17%
2 | 3′B4 PR4 (designed binder) EVVAATPTSLLISWRHPHFPTRYYRITYGETGGNSPVQEFTVPLQPPTATISGLKPGVDYTITVYAVTVAWNGHELMTPISINYRT | 38%
3 | 3C9 PR3 (designed binder) EVVAATPTSLLISWRHPHFPTRYYRITYGETGGNSPVQEFTVPLQPPTATISGLKPGVDYTITVYAVTLVRNDHELLTPISINYRT | 16%
4 | 3′A8 PR4 (designed binder) EVVAATPTSLLISWRHPHFPTRYYRITYGETGGNSPVQEFTVPLQPPTATISGLKPGVDYTITVYAVTVAWDDHELLTPISINYRT | 27%
5 | 3F10 PR3 (designed binder) EVVAATPTSLLISWRHPHFPTRYYRITYGETGGNSPVQEFTVPLQPPTATISGLKPGVDYTITVYAVTLAQDDHELLTPISINYRT | 16%
6 | 3F8 PR3 (designed binder) EVVAATPTSLLISWRHPHFPTRYYRITYGETGGNSPVQEFTVPLQPPTATISGLKPGVDYTITVYAVTVAQNGHELKTPISINYRT | 17%
7 | 3′B8 PR4 (designed binder) EVVAATPTSLLISWRHPHFPTRYYRITYGETGGNSPVQEFTVPLQPPTATISGLKPGVDYTITVYAVTLGYHDHALFTPISINYRT | 14%
8 | 3′B10 PR4 (designed binder) EVVAATPTSLLISWRHPHFPTRYYRITYGETGGNSPVQEFTVPLQPPTATISGLKPGVDYTITVYAVTLAQTGRELLTPISINYRT | 21%
9 | 3C7 PR3 (designed binder) EVVAATPTSLLISWRHPHFPTRYYRITYGETGGNSPVQEFTVPLQPPTATISGLKPGVDYTITVYAVTRGLNDGELLTPISINYRT | 20%
10 | 3′B2 PR4 (designed binder) EVVAATPTSLLISWRHPHFPTRYYRITYGETGGNSPVQEFTVPLQPPTATISGLKPGVDYTITVYAVTVGRNDRELLTPISINYRT | 29%
11 | 3′A9 PR4 (designed binder) EVVAATPTSLLISWRHPHFPTRYYRITYGETGGNSPVQEFTVPLQPPTATISGLKPGVDYTITVYAVTLAHNDRELLTPISINYRT | 25%
12 | 3′A7 PR4 (designed binder) EVVAATPTSLLISWRHPHFPTRYYRITYGETGGNSPVQEFTVPLQPPTATISGLKPGVDYTITVYAVTLSDSGHALFTPISINYRT | 34%
13 | 3D12 PR3 (designed binder) EVVAATPTSLLISWRHPHFPTRYYRITYGETGGNSPVQEFTVPLQPPTATISGLKPGVDYTITVYAVTLGQNDRQLLVPISINYRT | 24%
14 | 3′A6 PR4 (designed binder) EVVAATPTSLLISWRHPHFPTRYYRITYGETGGNSPVQEFTVPLQPPTATISGLKPGVDYTITVYAVTLAQNGHELLTPISINYRT | 19%
15 | 3G2 PR3 (designed binder) EVVAATPTSLLISWRHPHFPTRYYRITYGETGGNSPVQEFTVPLQPPTATISGLKPGVDYTITVYAVTFGPSDHVLLTPISINYRT | 20%
16 | 3′B1 PR4 (designed binder) EVVAATPTSLLISWRHPHFPTRYYRITYGETGGNSPVQEFTVPLQPPTATISGLKPGVDYTITVYAVTEARNGRELLTPISINYRT | 25%
